Experimental data from patent US20240368668A1, “SUBSTRATES AND BIOMARKERS OF ADAMTS7” (The Broad Institute, Inc., priority 2021, published 2024).
Square brackets hold non-standard residues; d marks the D form. Ends that are not written are not given here. Met(O) = CS(=O)CC[C@H](N)C(=O)O

Molecular target: T1, mouse ADAMTS7 (Mus musculus, UniProt Q68SA9, E373Q)
T1 construct: Full-length mouse Adamts7 1-1857 (Uniprot Q68SA9, WT or E373Q catalytic mutant); expressed in transfected cells; host or cells: Human Coronary Artery Smooth Muscle Cells (HCA-SMC, Lonza), adenovirus 50 MOI
T1 sequence (Q68SA9 221-1657 E373Q): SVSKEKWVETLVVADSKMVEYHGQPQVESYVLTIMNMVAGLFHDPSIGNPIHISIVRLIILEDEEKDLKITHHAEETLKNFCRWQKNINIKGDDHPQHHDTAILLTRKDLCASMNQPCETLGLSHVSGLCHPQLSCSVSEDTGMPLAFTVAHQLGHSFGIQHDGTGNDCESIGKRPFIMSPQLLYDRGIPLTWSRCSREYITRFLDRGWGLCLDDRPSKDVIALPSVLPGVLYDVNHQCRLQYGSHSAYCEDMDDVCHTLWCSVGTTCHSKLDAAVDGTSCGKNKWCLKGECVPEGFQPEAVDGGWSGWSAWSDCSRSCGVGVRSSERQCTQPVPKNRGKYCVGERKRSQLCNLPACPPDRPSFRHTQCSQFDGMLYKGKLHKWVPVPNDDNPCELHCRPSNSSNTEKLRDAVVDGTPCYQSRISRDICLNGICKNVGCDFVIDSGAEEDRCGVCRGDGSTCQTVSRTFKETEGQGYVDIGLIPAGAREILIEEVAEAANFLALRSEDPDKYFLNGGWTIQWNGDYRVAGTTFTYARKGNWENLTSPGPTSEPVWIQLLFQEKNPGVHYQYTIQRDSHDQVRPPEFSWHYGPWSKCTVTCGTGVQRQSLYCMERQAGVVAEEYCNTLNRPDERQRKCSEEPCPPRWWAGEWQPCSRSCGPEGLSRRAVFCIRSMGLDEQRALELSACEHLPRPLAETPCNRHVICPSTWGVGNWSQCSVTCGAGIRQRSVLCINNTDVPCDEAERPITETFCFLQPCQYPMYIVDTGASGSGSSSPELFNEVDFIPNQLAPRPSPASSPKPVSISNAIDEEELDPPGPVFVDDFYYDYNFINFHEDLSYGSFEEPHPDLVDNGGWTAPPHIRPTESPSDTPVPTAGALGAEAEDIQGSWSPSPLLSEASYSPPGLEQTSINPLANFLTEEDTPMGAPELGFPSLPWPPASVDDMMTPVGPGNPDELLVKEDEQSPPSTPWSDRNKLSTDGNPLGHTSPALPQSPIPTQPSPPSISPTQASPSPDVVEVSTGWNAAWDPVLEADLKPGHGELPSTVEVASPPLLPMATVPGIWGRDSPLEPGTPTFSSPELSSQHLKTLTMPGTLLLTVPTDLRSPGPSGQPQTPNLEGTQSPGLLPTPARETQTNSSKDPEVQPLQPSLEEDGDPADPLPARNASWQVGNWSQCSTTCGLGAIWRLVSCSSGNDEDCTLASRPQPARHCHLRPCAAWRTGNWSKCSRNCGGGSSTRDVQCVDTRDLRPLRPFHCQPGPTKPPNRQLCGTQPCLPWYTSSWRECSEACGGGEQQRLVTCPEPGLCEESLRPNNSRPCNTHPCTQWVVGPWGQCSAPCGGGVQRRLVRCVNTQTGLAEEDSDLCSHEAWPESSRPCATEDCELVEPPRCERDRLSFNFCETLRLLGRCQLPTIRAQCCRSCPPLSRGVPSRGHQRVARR
Assay: TMT10 TAILS N-terminomics, SMC2 experiment (process replicates, trypsin/AspN digest)
Format: cell-based
Method in brief: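 Full-length mouse ADAMTS7 (WT or E373Q mutant, C-terminal 3xFLAG) or luciferase was transduced via adenovirus, 50 MOI, into HCA-SMC (SMC1, SMC2) or HUVEC. SMC1: pooled media, technical triplicates 400 ug; SMC2: process triplicates 300 ug; HUVEC: process triplicates 200 ug, bFGF2 10 ng/ml.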

[1] = SMC2_TAILS HC, log fold change, mEQ over Luc
[2] = SMC2_TAILS HC, log fold change of N-terminal peptide, Ad-mADAMTS7 EQ over Luc
[3] = log fold change, ADAMTS7 EQ over luciferase

Row | logFC.mEQ.over.Luc [1] | logFC.mEQ.over.Luc [2] | logFC.mEQ.over.Luc [3] | Substance
1 | −0.33 | – | – | COL1A2_80 (QYDGKGVGLGPGPMGLMGPR; listed as Homo sapiens)
2 | −0.05 | – | – | COL1A2_270 (VGNAGPAGPAGPR; listed as Homo sapiens)
3 | −0.32 | – | – | COL1A2_305 (LTGAKGAAGLPGVAGAPGLPGPR; listed as Homo sapiens)
4 | −0.30 | – | – | COL1A2_630 (VGTAGPSGPSGLPGER; listed as Homo sapiens)
5 | −0.46 | – | – | COL1A2_866 (LLGAPGILGLPGSR; listed as Homo sapiens)
6 | −0.16 | – | – | COL1A2_960 (AGAPGPHGPVGPAGKHGNR; listed as Homo sapiens)
7 | −0.25 | – | – | COL1A2_1028 (LQGLPGIAGHHGDQGAPGSVGPAGPR; listed as Homo sapiens)
8 | −0.32 | – | – | COL4A2_71 (YNGPPGLQGFPGLQGR; listed as Homo sapiens)
9 | −0.01 | – | – | COL18A1_1505 (LQPPVVQLHDSNPYPR; listed as Homo sapiens)
10 | – | −0.11 | – | LOXL1_218 (AVASAGVIYPYQPR; listed as Homo sapiens)
11 | – | 0.11 | – | LOXL2_45 (HQPQAPANVAKIQLR; listed as Homo sapiens)
12 | – | −0.09 | – | LTBP2_79 (VAGLQPVER; listed as Homo sapiens)
13 | – | −0.21 | – | LTBP2_250 (SAAGEGTLAR; listed as Homo sapiens)
14 | – | −0.10 | – | LTBP2_290 (QHVGLSR; listed as Homo sapiens)
15 | – | −0.18 | – | LTBP2_502 (LVENSVETRPPPWLPASPGHSLW; listed as Homo sapiens)
16 | – | −0.92 | – | LTBP3_103 (LTGSGFR; listed as Homo sapiens)
17 | – | −0.03 | – | LTBP3_208 (FLVPLGPGQISA; listed as Homo sapiens)
18 | – | −0.02 | – | MAP4_815 (AVASTGPSSR; listed as Homo sapiens)
19 | – | 0.02 | – | MAP4_816 (VASTGPSSR; listed as Homo sapiens)
20 | – | −0.05 | – | MMP1_100 (FVLTEGNPR; listed as Homo sapiens)
21 | – | −0.37 | – | MMP1_185 (FQPGPGIGG; listed as Homo sapiens)
22 | – | −0.08 | – | NBEA_1892 (LEKVAPLLR; listed as Homo sapiens)

Row | logFC.mEQ.over.Luc [1] | logFC.mEQ.over.Luc [2] | logFC.mEQ.over.Luc [3] | Substance
23 | – | −0.22 | – | NID1_360 (FHQQHPQVI; listed as Homo sapiens)
24 | – | 0.00 | – | NID2_291 (HSSVPLGR; listed as Homo sapiens)
25 | – | −0.06 | – | NID2_951 (YAYPGAR; listed as Homo sapiens)
26 | – | 0.69 | – | PAK4_141 (HSEAGGGSG; listed as Homo sapiens)
27 | – | 0.07 | – | PLIN3_75 (VSGAQPILSKL; listed as Homo sapiens)
28 | – | −0.09 | – | POSTN_727 (IITGPEIKYTR; listed as Homo sapiens)
29 | – | 0.03 | – | PPP1R18_295 (LSETLTR; listed as Homo sapiens)
30 | – | −0.08 | – | PTPRF_1859 (MRYEGVVDMFQTVKTLR; listed as Homo sapiens)
31 | – | −0.49 | – | QSOX1_210 (HKGVAVR; listed as Homo sapiens)
32 | – | – | −0.09 | SERBP1_56 (QAAAQTNSNAAGKQLR; listed as Homo sapiens)
33 | – | 0.04 | – | SHC2_267 (VAKDPINQRACHIL; listed as Homo sapiens)
34 | – | −0.65 | – | SPOCK1_27 (LAGGAGPNHGNFL; listed as Homo sapiens)
35 | – | 0.05 | −0.10 | SRGN_59 (LLPGESNKIPR; listed as Homo sapiens)
36 | – | – | 0.59 | THBS2_290 (LSENLKR; listed as Homo sapiens)
37 | – | 0.06 | – | TNPO2_744 (VQ[Met(O)]VLNNLVEII[code n]RP[code n]TPKTLLE; listed as Homo sapiens)
38 | – | −0.59 | – | TNS1_236 (QEGLAGYQR; listed as Homo sapiens)
39 | – | 0.23 | – | TRGC2_86 (HRCIVRHENNK; listed as Homo sapiens)
40 | – | −0.19 | – | TTN_5975 (VKEPPVEFTKPL; listed as Homo sapiens)
41 | – | 0.27 | – | VAT1_42 (AASPPLLR; listed as Homo sapiens)
42 | – | −0.22 | 0.03 | VIM_314 (QESTEYR; listed as Homo sapiens)
43 | – | −0.09 | −0.03 | VIM_333 (LKGTNESLER; listed as Homo sapiens)
